Among the data in doi:10.1101/2024.06.02.596995 are binding efficiency relative to WT Armi values, retold here.

Test [1] deals with Armitage KEE-Flag (D. melanogaster) (UniProt Q6J5K9). The experiment in a line: co-IP.
Test [2] deals with Armitage ΔN34-Flag (D. melanogaster) (UniProt Q6J5K9). Kind of test: co-IP.

As for “Daedalus (Daed), endogenous in OSCs (natural protein)”, the binding efficiency relative to WT Armi in test [1] was determined as 34%; in test [2], 20%.
